Measurements taken from publication PMC3888415.
Where two headings read alike, the source gives them in different places. Blank lines part the entries; values can stand above or below the substance they belong to.

Key:
human α-thrombin (human) [1] = test: ELISA; thrombin capture assay: thrombin (5 µg/ml) coated on microtiter wells in PBS; cleared bacterial lysates applied neat for one hour; detected with HRP-conjugated sheep anti-human API; OD 450 nm, for P7–P3 variants normalized to API M358R lysate
human α-thrombin (human) [2] = test: discontinuous thrombin inhibition assay (second order rate constant k2); pseudo first order conditions; purified API proteins and thrombin; mean ± SD of 5 determinations
human α-thrombin (human) [3] = test: ELISA; thrombin capture assay: thrombin (5 µg/ml) coated on microtiter wells in PBS; cleared bacterial lysates applied neat for one hour; detected with HRP-conjugated sheep anti-human API; OD 450 nm, for P7–P3 variants normalized to API M358R lysate; remark: listed apart in the source

Substance: API M358R P7–P3 variant DAFAA (from UniProt P01009 25-418)
relative OD450 versus API M358R (human α-thrombin (human) [1]): 1.59

Substance: API M358R P7–P3 variant LINPI (from UniProt P01009 25-418)
relative OD450 versus API M358R (human α-thrombin (human) [1]): 1.54

Substance: recombinant hexahistidine-tagged API M358R (from UniProt P01009 25-418) (natural protein)
k2 (second order rate constant of thrombin inhibition) (mol^−1 sec^−1) (human α-thrombin (human) [2]): 487000

Substance: API M358R P7–P3 variant VTTIT (from UniProt P01009 25-418)
relative OD450 versus API M358R (human α-thrombin (human) [1]): 1.9

Substance: API M358R P7–P3 variant NLIPT (from UniProt P01009 25-418)
k2 (second order rate constant of thrombin inhibition) (mol^−1 sec^−1) (human α-thrombin (human) [2]): 176000

Substance: API M358R P7–P3 variant QVKPA (from UniProt P01009 25-418)
relative OD450 versus API M358R (human α-thrombin (human) [1]): 1.37

Substance: API M358R P7–P3 variant DVTVS (from UniProt P01009 25-418)
relative OD450 versus API M358R (human α-thrombin (human) [1]): 1.42

Substance: API M358R P7–P3 variant LASMR (from UniProt P01009 25-418)
k2 (second order rate constant of thrombin inhibition) (mol^−1 sec^−1) (human α-thrombin (human) [2]): 895000
relative OD450 versus API M358R (human α-thrombin (human) [1]): 1.89

Substance: API M358R P7–P3 variant DITMA (from UniProt P01009 25-418)
k2 (second order rate constant of thrombin inhibition) (mol^−1 sec^−1) (human α-thrombin (human) [2]): 1e+06
relative OD450 versus API M358R (human α-thrombin (human) [1]): 1.64
relative OD450 versus API M358R (human α-thrombin (human) [3]): 1.7

Substance: API M358R P7–P3 variant FHTLG (from UniProt P01009 25-418)
relative OD450 versus API M358R (human α-thrombin (human) [1]): 2.13

Substance: API M358R P7–P3 variant HATVS (from UniProt P01009 25-418)
k2 (second order rate constant of thrombin inhibition) (mol^−1 sec^−1) (human α-thrombin (human) [2]): 504000
relative OD450 versus API M358R (human α-thrombin (human) [1]): 1.99

Substance: API M358R P7–P3 variant EATVS (from UniProt P01009 25-418)
k2 (second order rate constant of thrombin inhibition) (mol^−1 sec^−1) (human α-thrombin (human) [2]): 617000
relative OD450 versus API M358R (human α-thrombin (human) [1]): 1.54

Substance: API M358R P7–P3 variant EAHFR (from UniProt P01009 25-418)
relative OD450 versus API M358R (human α-thrombin (human) [1]): 1.51

Substance: API M358R P7–P3 variant QATFL (from UniProt P01009 25-418)
k2 (second order rate constant of thrombin inhibition) (mol^−1 sec^−1) (human α-thrombin (human) [2]): 593000
relative OD450 versus API M358R (human α-thrombin (human) [1]): 1.91

Substance: API M358R P7–P3 variant LAITS (from UniProt P01009 25-418)
relative OD450 versus API M358R (human α-thrombin (human) [1]): 1.45

Substance: API M358R P7–P3 variant DLTVS (plaque consensus) (from UniProt P01009 25-418)
k2 (second order rate constant of thrombin inhibition) (mol^−1 sec^−1) (human α-thrombin (human) [2]): 529000

Second part, the substance after the results:

k2 (second order rate constant of thrombin inhibition) (mol^−1 sec^−1) (human α-thrombin (human) [2]): 1.01e+06
relative OD450 versus API M358R (human α-thrombin (human) [1]): 3.01
Substance: API M358R P7–P3 variant AAFVS (from UniProt P01009 25-418)

relative OD450 versus API M358R (human α-thrombin (human) [1]): 1.36
Substance: API M358R P7–P3 variant TLSAV (from UniProt P01009 25-418)

relative OD450 versus API M358R (human α-thrombin (human) [1]): 1.46
Substance: API M358R P7–P3 variant ISSAN (from UniProt P01009 25-418)

relative OD450 versus API M358R (human α-thrombin (human) [1]): 1.28
Substance: API M358R P7–P3 variant LSELA (from UniProt P01009 25-418)

k2 (second order rate constant of thrombin inhibition) (mol^−1 sec^−1) (human α-thrombin (human) [2]): 896000
relative OD450 versus API M358R (human α-thrombin (human) [1]): 2.09
Substance: API M358R P7–P3 variant LTTLR (from UniProt P01009 25-418)

k2 (second order rate constant of thrombin inhibition) (mol^−1 sec^−1) (human α-thrombin (human) [2]): 786000
relative OD450 versus API M358R (human α-thrombin (human) [3]): 2.1
Substance: API M358R P7–P3 variant LHTLG (from UniProt P01009 25-418)

k2 (second order rate constant of thrombin inhibition) (mol^−1 sec^−1) (human α-thrombin (human) [2]): 783000
relative OD450 versus API M358R (human α-thrombin (human) [1]): 2.61
Substance: API M358R P7–P3 variant EISLQ (from UniProt P01009 25-418)

relative OD450 versus API M358R (human α-thrombin (human) [1]): 1.49
Substance: API M358R P7–P3 variant TVSVS (from UniProt P01009 25-418)

k2 (second order rate constant of thrombin inhibition) (mol^−1 sec^−1) (human α-thrombin (human) [2]): 765000
relative OD450 versus API M358R (human α-thrombin (human) [3]): 1.5
Substance: API M358R P7–P3 variant LATVS (lysate consensus) (from UniProt P01009 25-418)
